Assay results as given in patent US20190194276A1 (MAYO FOUNDATION FOR MEDICAL EDUCATION AND RESEARCH, published 2019).
Ends that are not written are not given here.

Legend:
endogenous IQGAP1 [1] = target: T1, endogenous IQGAP1 (human, UniProt P46940 2-1657); assay: co-IP with anti-Flag from transfected LNCaP cells, Western blot
T1 construct: also called cellular IQGAP1

endogenous IQGAP1 [2] = target: T1, endogenous IQGAP1; assay: GST pull-down from DU145 whole cell lysate, Western blot
endogenous IQGAP1 [3] = target: T1, endogenous IQGAP1; assay: co-IP with anti-Flag from LNCaP cells expressing SFB-tagged peptides, Western blot
endogenous IQGAP1 [4] = target: T1, endogenous IQGAP1; assay: co-IP with anti-IQGAP1 from LNCaP cells transfected with HA-FOXO4, Western blot
endogenous IQGAP1 [5] = target: T1, endogenous IQGAP1; assay: co-IP with anti-IQGAP1 from LNCaP cells transfected with HA-FOXO3, Western blot

T1 sequence (P46940 2-1657 limits assumed): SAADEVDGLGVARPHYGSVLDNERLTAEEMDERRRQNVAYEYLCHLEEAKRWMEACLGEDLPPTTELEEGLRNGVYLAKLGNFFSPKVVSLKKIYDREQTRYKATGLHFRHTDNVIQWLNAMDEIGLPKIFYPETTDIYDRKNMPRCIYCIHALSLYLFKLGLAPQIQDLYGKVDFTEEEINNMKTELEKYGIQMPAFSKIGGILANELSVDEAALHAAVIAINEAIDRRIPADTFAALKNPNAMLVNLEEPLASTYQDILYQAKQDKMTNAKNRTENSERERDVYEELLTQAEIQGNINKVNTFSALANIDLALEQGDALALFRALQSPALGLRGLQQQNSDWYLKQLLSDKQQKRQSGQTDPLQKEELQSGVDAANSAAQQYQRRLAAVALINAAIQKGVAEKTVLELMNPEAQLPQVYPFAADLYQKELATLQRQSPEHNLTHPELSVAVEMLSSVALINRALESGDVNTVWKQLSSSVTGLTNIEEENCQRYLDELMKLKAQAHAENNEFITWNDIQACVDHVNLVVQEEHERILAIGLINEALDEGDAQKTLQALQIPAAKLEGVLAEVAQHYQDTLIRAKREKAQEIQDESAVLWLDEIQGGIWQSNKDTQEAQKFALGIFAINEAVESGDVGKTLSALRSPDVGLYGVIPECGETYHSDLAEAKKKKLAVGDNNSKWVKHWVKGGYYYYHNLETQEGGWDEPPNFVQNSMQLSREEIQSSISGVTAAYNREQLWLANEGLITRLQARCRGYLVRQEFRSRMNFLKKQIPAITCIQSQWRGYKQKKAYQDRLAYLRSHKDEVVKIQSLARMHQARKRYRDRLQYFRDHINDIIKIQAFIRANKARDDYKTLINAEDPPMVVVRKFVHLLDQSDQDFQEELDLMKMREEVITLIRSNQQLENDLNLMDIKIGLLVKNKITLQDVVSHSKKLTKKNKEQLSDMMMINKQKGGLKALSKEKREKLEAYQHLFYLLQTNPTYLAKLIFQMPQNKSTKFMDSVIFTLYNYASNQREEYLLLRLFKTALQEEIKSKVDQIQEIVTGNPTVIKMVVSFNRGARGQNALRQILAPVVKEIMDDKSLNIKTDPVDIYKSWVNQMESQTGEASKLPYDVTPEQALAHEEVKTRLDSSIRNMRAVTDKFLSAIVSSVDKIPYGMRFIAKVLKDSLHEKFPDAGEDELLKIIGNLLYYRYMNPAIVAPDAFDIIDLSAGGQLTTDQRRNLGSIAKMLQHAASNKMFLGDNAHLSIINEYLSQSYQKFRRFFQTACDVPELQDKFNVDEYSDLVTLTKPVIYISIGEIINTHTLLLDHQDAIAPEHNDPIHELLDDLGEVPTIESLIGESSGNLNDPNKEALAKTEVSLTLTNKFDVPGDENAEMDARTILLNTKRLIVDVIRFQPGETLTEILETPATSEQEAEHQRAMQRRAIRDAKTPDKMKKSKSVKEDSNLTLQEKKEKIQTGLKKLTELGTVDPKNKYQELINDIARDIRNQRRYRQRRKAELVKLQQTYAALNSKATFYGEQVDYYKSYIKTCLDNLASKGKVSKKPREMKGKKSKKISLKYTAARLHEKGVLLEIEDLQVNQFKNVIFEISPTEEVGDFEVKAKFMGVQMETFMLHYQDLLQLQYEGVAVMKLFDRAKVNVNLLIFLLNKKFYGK

B1: Flag-FOXO1-537 (other, human, UniProt Q12778 1-537, looked up)
chain: MAEAPQVVEIDPDFEPLPRPRSCTWPLPRPEFSQSNSATSSPAPSGSAAANPDAAAGLPSASAAAVSADFMSNLSLLEESEDFPQAPGSVAAAVAAAAAAAATGGLCGDFQGPEAGCLHPAPPQPPPPGPLSQHPPVPPAAAGPLAGQPRKSSSSRRNAWGNLSYADLITKAIESSAEKRLTLSQIYEWMVKSVPYFKDKGDSNSSAGWKNSIRRNLSLHSKFIRVQNEGTGKSSWWMLNPEGGKSGKSPRRRAASMDNNSKFAKSRSRAAKKKASLQSGQEGAGDSPGSQFSKWPASPGSHSNDDFDNWSTFRPRTSSNASTISGRLSPIMTEQDDLGEGDVHSMVYPPSAAKMASTLPSLSEISNPENMENLLDNLNLLSSPTSLTVSTQSSPGTMMQQTPCYSFAPPNTSLNSPSPNYQKYTYGQSSMSPLPQMPIQTLQDNKSSYGGMSQYNCAPGLLKELLTSDSPPHNDIMTPVDPGVAQPNSRVLGQNVMMGPNSVMSTYGSQASHNKMMNPSSHTHPGHAQQTSAVNGR
notes: Transcription-deficient mutant that can be phosphorylated by AKT; not shown: Flag tag
Endogenous IQGAP1 [1]
  binding result: binds

B2: GST-FOXO1-1 (amino acids 1-167) (other, human, UniProt Q12778 1-167, looked up, not shown: a dimerising Fc or GST)
chain: MAEAPQVVEIDPDFEPLPRPRSCTWPLPRPEFSQSNSATSSPAPSGSAAANPDAAAGLPSASAAAVSADFMSNLSLLEESEDFPQAPGSVAAAVAAAAAAAATGGLCGDFQGPEAGCLHPAPPQPPPPGPLSQHPPVPPAAAGPLAGQPRKSSSSRRNAWGNLSYAD
notes: range 1-167
Endogenous IQGAP1 [2]
  binding result: no binding

B3: SFB-FOXO1-IQBP S319 (peptide, not shown: small tags and cut ends)
peptide: NDDFDNWSTFRPRTSSNASTISGRLSPIMT
modifications: also: SFB tag, position not given here
notes: Expressed in LNCaP cells; also called wild-type counterpart
Endogenous IQGAP1 [3]
  binding result: binds

## NDDFDNWSTFRPRTSDNASTISGRLSPIMT (peptide, not shown: small tags and cut ends, also: SFB tag, position not given here, Expressed in LNCaP cells) [SFB-FOXO1-IQBP S319D]
Endogenous IQGAP1 [3]
  binding result: binds

B4: SFB-FOXO1-IQBP S319E (peptide, not shown: small tags and cut ends)
peptide: NDDFDNWSTFRPRTSENASTISGRLSPIMT
modifications: also: SFB tag, position not given here
notes: Expressed in LNCaP cells; also called Flag-tagged FOXO1 IQBP(SE)
Endogenous IQGAP1 [3]
  binding result: binds

B5: HA-FOXO4 (other, UniProt P98177 1-505, looked up)
chain: MDPGNENSATEAAAIIDLDPDFEPQSRPRSCTWPLPRPEIANQPSEPPEVEPDLGEKVHTEGRSEPILLPSRLPEPAGGPQPGILGAVTGPRKGGSRRNAWGNQSYAELISQAIESAPEKRLTLAQIYEWMVRTVPYFKDKGDSNSSAGWKNSIRHNLSLHSKFIKVHNEATGKSSWWMLNPEGGKSGKAPRRRAASMDSSSKLLRGRSKAPKKKPSVLPAPPEGATPTSPVGHFAKWSGSPCSRNREEADMWTTFRPRSSSNASSVSTRLSPLRPESEVLAEEIPASVSSYAGGVPPTLNEGLELLDGLNLTSSHSLLSRSGLSGFSLQHPGVTGPLHTYSSSLFSPAEGPLSAGEGCFSSSQALEALLTSDTPPPPADVLMTQVDPILSQAPTLLLLGGLPSSSKLATGVGLCPKPLEAPGPSSLVPTLSMIAPPPVMASAPIPKALGTPVLTPPTEAASQDRMPQDLDLDMYMENLECDMDNIISDLMDEGEGLDFNFEPDP
notes: Expressed in LNCaP cells; not shown: HA tag
Endogenous IQGAP1 [4]
  binding result: binds

B6: HA-FOXO3 (other, UniProt O43524 1-673, looked up)
chain: MAEAPASPAPLSPLEVELDPEFEPQSRPRSCTWPLQRPELQASPAKPSGETAADSMIPEEEDDEDDEDGGGRAGSAMAIGGGGGSGTLGSGLLLEDSARVLAPGGQDPGSGPATAAGGLSGGTQALLQPQQPLPPPQPGAAGGSGQPRKCSSRRNAWGNLSYADLITRAIESSPDKRLTLSQIYEWMVRCVPYFKDKGDSNSSAGWKNSIRHNLSLHSRFMRVQNEGTGKSSWWIINPDGGKSGKAPRRRAVSMDNSNKYTKSRGRAAKKKAALQTAPESADDSPSQLSKWPGSPTSRSSDELDAWTDFRSRTNSNASTVSGRLSPIMASTELDEVQDDDAPLSPMLYSSSASLSPSVSKPCTVELPRLTDMAGTMNLNDGLTENLMDDLLDNITLPPSQPSPTGGLMQRSSSFPYTTKGSGLGSPTSSFNSTVFGPSSLNSLRQSPMQTIQENKPATFSSMSHYGNQTLQDLLTSDSLSHSDVMMTQSDPLMSQASTAVSAQNSRRNVMLRNDPMMSFAAQPNQGSLVNQNLLHHQHQTQGALGGSRALSNSVSNMGLSESSSLGSAKHQQQSPVSQSMQTLSDSLSGSSLYSTSANLPVMGHEKFPSDLDLDMFNGSLECDMESIIRSELMDADGLDFNFDSLISTQNVVGLNVGNFTGAKQASSQSWVPG
notes: as for B5
Endogenous IQGAP1 [5]
  binding result: binds

B7: Flag-FOXO1-A3 (T24A/S256A/S319A) (other, human, UniProt Q12778 1-655, looked up)
chain: MAEAPQVVEIDPDFEPLPRPRSCAWPLPRPEFSQSNSATSSPAPSGSAAANPDAAAGLPSASAAAVSADFMSNLSLLEESEDFPQAPGSVAAAVAAAAAAAATGGLCGDFQGPEAGCLHPAPPQPPPPGPLSQHPPVPPAAAGPLAGQPRKSSSSRRNAWGNLSYADLITKAIESSAEKRLTLSQIYEWMVKSVPYFKDKGDSNSSAGWKNSIRHNLSLHSKFIRVQNEGTGKSSWWMLNPEGGKSGKSPRRRAAAMDNNSKFAKSRSRAAKKKASLQSGQEGAGDSPGSQFSKWPASPGSHSNDDFDNWSTFRPRTSANASTISGRLSPIMTEQDDLGEGDVHSMVYPPSAAKMASTLPSLSEISNPENMENLLDNLNLLSSPTSLTVSTQSSPGTMMQQTPCYSFAPPNTSLNSPSPNYQKYTYGQSSMSPLPQMPIQTLQDNKSSYGGMSQYNCAPGLLKELLTSDSPPHNDIMTPVDPGVAQPNSRVLGQNVMMGPNSVMSTYGSQASHNKMMNPSSHTHPGHAQQTSAVNGRPLPHTVSTMPHTSGMNRLTQVKTPVQVPLPHPMQMSALGGYSSVSSCNGYGRMGLLHQEKLPSDLDGMFIERLDCDMESIIRNDLMDGDTLDFNFDNVLPNQSFPHSVKTTTHSWVSG
notes: Expressed in LNCaP cells; also called triple mutant; not shown: Flag tag
Endogenous IQGAP1 [1]
  binding result: no binding

B8: Flag-FOXO1-T24A (other, human, UniProt Q12778 1-655, looked up)
chain: MAEAPQVVEIDPDFEPLPRPRSCAWPLPRPEFSQSNSATSSPAPSGSAAANPDAAAGLPSASAAAVSADFMSNLSLLEESEDFPQAPGSVAAAVAAAAAAAATGGLCGDFQGPEAGCLHPAPPQPPPPGPLSQHPPVPPAAAGPLAGQPRKSSSSRRNAWGNLSYADLITKAIESSAEKRLTLSQIYEWMVKSVPYFKDKGDSNSSAGWKNSIRHNLSLHSKFIRVQNEGTGKSSWWMLNPEGGKSGKSPRRRAASMDNNSKFAKSRSRAAKKKASLQSGQEGAGDSPGSQFSKWPASPGSHSNDDFDNWSTFRPRTSSNASTISGRLSPIMTEQDDLGEGDVHSMVYPPSAAKMASTLPSLSEISNPENMENLLDNLNLLSSPTSLTVSTQSSPGTMMQQTPCYSFAPPNTSLNSPSPNYQKYTYGQSSMSPLPQMPIQTLQDNKSSYGGMSQYNCAPGLLKELLTSDSPPHNDIMTPVDPGVAQPNSRVLGQNVMMGPNSVMSTYGSQASHNKMMNPSSHTHPGHAQQTSAVNGRPLPHTVSTMPHTSGMNRLTQVKTPVQVPLPHPMQMSALGGYSSVSSCNGYGRMGLLHQEKLPSDLDGMFIERLDCDMESIIRNDLMDGDTLDFNFDNVLPNQSFPHSVKTTTHSWVSG
notes: Expressed in LNCaP cells; not shown: Flag tag
Endogenous IQGAP1 [1]
  binding result: binds

B9: Flag-FOXO1-S256A (other, human, UniProt Q12778 1-655, looked up)
chain: MAEAPQVVEIDPDFEPLPRPRSCTWPLPRPEFSQSNSATSSPAPSGSAAANPDAAAGLPSASAAAVSADFMSNLSLLEESEDFPQAPGSVAAAVAAAAAAAATGGLCGDFQGPEAGCLHPAPPQPPPPGPLSQHPPVPPAAAGPLAGQPRKSSSSRRNAWGNLSYADLITKAIESSAEKRLTLSQIYEWMVKSVPYFKDKGDSNSSAGWKNSIRHNLSLHSKFIRVQNEGTGKSSWWMLNPEGGKSGKSPRRRAAAMDNNSKFAKSRSRAAKKKASLQSGQEGAGDSPGSQFSKWPASPGSHSNDDFDNWSTFRPRTSSNASTISGRLSPIMTEQDDLGEGDVHSMVYPPSAAKMASTLPSLSEISNPENMENLLDNLNLLSSPTSLTVSTQSSPGTMMQQTPCYSFAPPNTSLNSPSPNYQKYTYGQSSMSPLPQMPIQTLQDNKSSYGGMSQYNCAPGLLKELLTSDSPPHNDIMTPVDPGVAQPNSRVLGQNVMMGPNSVMSTYGSQASHNKMMNPSSHTHPGHAQQTSAVNGRPLPHTVSTMPHTSGMNRLTQVKTPVQVPLPHPMQMSALGGYSSVSSCNGYGRMGLLHQEKLPSDLDGMFIERLDCDMESIIRNDLMDGDTLDFNFDNVLPNQSFPHSVKTTTHSWVSG
notes: as for B8
Endogenous IQGAP1 [1]
  binding result: binds

B10: Flag-FOXO1-S319A (other, human, UniProt Q12778 1-655, looked up)
chain: MAEAPQVVEIDPDFEPLPRPRSCTWPLPRPEFSQSNSATSSPAPSGSAAANPDAAAGLPSASAAAVSADFMSNLSLLEESEDFPQAPGSVAAAVAAAAAAAATGGLCGDFQGPEAGCLHPAPPQPPPPGPLSQHPPVPPAAAGPLAGQPRKSSSSRRNAWGNLSYADLITKAIESSAEKRLTLSQIYEWMVKSVPYFKDKGDSNSSAGWKNSIRHNLSLHSKFIRVQNEGTGKSSWWMLNPEGGKSGKSPRRRAASMDNNSKFAKSRSRAAKKKASLQSGQEGAGDSPGSQFSKWPASPGSHSNDDFDNWSTFRPRTSANASTISGRLSPIMTEQDDLGEGDVHSMVYPPSAAKMASTLPSLSEISNPENMENLLDNLNLLSSPTSLTVSTQSSPGTMMQQTPCYSFAPPNTSLNSPSPNYQKYTYGQSSMSPLPQMPIQTLQDNKSSYGGMSQYNCAPGLLKELLTSDSPPHNDIMTPVDPGVAQPNSRVLGQNVMMGPNSVMSTYGSQASHNKMMNPSSHTHPGHAQQTSAVNGRPLPHTVSTMPHTSGMNRLTQVKTPVQVPLPHPMQMSALGGYSSVSSCNGYGRMGLLHQEKLPSDLDGMFIERLDCDMESIIRNDLMDGDTLDFNFDNVLPNQSFPHSVKTTTHSWVSG
notes: as for B8
Endogenous IQGAP1 [1]
  binding result: no binding

B11: GST-FOXO1-4 (amino acids 354-503) (other, human, UniProt Q12778 354-503, looked up, not shown: a dimerising Fc or GST)
chain: KMASTLPSLSEISNPENMENLLDNLNLLSSPTSLTVSTQSSPGTMMQQTPCYSFAPPNTSLNSPSPNYQKYTYGQSSMSPLPQMPIQTLQDNKSSYGGMSQYNCAPGLLKELLTSDSPPHNDIMTPVDPGVAQPNSRVLGQNVMMGPNSV
notes: range 354-503
Endogenous IQGAP1 [2]
  binding result: no binding

B12: GST-FOXO1-2 (amino acids 149-267) (other, human, UniProt Q12778 149-267, looked up, not shown: a dimerising Fc or GST)
chain: PRKSSSSRRNAWGNLSYADLITKAIESSAEKRLTLSQIYEWMVKSVPYFKDKGDSNSSAGWKNSIRHNLSLHSKFIRVQNEGTGKSSWWMLNPEGGKSGKSPRRRAASMDNNSKFAKSR
notes: range 149-267
Endogenous IQGAP1 [2]
  binding result: no binding

B13: GST-FOXO1-5 (amino acids 488-655) (other, human, UniProt Q12778 488-655, looked up, not shown: a dimerising Fc or GST)
chain: NSRVLGQNVMMGPNSVMSTYGSQASHNKMMNPSSHTHPGHAQQTSAVNGRPLPHTVSTMPHTSGMNRLTQVKTPVQVPLPHPMQMSALGGYSSVSSCNGYGRMGLLHQEKLPSDLDGMFIERLDCDMESIIRNDLMDGDTLDFNFDNVLPNQSFPHSVKTTTHSWVSG
notes: range 488-655
Endogenous IQGAP1 [2]
  binding result: no binding
